From IntAct's records for PubMed 32637409

B1: Mitochondrial Rho GTPase 1 (Homo sapiens), Q8IXI2 (parent)
chain: MKKDVRILLVGEPRVGKTSLIMSLVSEEFPEEVPPRAEEITIPADVTPERVPTHIVDYSEAEQSDEQLHQEISQANVICIVYAVNNKHSIDKVTSRWIPLINERTDKDSRLPLILVGNKSDLVEYSSMETILPIMNQYTEIETCVECSAKNLKNISELFYYAQKAVLHPTGPLYCPEEKEMKPACIKALTRIFKISDQDNDGTLNDAELNFFQRICFNTPLAPQALEDVKNVVRKHISDGVADSGLTLKGFLFLHTLFIQRGRHETTWTVLRRFGYDDDLDLTPEYLFPLLKIPPDCTTELNHHAYLFLQSTFDKHDLDRDCALSPDELKDLFKVFPYIPWGPDVNNTVCTNERGWITYQGFLSQWTLTTYLDVQRCLEYLGYLGYSILTEQESQASAVTVTRDKKIDLQKKQTQRNVFRCNVIGVKNCGKSGVLQALLGRNLMRQKKIREDHKSYYAINTVYVYGQEKYLLLHDISESEFLTEAEIICDVVCLVYDVSNPKSFEYCARIFKQHFMDSRIPCLIVAAKSDLHEVKQEYSISPTDFCRKHKMPPPQAFTCNTADAPSKDIFVKLTTMAMYPHVTQADLKSSTFWLRASFGATVFAVLGFAMYKALLKQR
partner: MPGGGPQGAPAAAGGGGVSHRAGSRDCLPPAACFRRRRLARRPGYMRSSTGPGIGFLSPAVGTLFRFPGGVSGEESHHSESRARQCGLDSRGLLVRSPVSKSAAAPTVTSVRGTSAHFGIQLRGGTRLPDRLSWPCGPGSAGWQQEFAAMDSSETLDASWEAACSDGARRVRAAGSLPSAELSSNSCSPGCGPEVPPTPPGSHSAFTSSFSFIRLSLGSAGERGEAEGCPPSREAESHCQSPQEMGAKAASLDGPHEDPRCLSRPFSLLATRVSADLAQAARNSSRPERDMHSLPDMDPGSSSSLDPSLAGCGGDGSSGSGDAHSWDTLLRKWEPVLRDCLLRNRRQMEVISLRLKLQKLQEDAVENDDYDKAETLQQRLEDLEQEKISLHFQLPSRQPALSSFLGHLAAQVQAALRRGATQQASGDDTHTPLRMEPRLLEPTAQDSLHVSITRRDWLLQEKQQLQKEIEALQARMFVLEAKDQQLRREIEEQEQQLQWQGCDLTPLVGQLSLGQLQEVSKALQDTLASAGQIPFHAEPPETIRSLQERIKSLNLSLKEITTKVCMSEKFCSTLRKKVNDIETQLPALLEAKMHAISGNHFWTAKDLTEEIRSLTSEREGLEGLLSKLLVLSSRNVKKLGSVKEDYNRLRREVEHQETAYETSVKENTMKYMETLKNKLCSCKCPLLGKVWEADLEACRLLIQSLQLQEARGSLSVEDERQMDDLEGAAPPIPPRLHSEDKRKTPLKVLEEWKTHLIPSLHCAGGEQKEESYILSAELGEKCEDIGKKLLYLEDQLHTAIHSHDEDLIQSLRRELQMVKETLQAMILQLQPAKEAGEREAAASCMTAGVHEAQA

Variants of: B1
Conditions: with disc1_human DISC1, Q9NRI5

effect of a mutation on the interaction	Variant
increasing interaction	P13V
with no effect	T18N
